Test results as given in publication PMC6994035.

How the values were obtained:
Test in all cases: EMSA
[1] = target: Mbd4-Strep (UniProt Q9Z2D7 1-554)
[2] = target: MBD-YFP (MBD of Mecp2) (UniProt Q9Z2D6 77-167)
[3] = target: mcherry-Tet1CD (UniProt Q3URK3 1367-2039)

Measured: binding result

Sequence of mcherry-Tet1CD (Q3URK3 1367-2039): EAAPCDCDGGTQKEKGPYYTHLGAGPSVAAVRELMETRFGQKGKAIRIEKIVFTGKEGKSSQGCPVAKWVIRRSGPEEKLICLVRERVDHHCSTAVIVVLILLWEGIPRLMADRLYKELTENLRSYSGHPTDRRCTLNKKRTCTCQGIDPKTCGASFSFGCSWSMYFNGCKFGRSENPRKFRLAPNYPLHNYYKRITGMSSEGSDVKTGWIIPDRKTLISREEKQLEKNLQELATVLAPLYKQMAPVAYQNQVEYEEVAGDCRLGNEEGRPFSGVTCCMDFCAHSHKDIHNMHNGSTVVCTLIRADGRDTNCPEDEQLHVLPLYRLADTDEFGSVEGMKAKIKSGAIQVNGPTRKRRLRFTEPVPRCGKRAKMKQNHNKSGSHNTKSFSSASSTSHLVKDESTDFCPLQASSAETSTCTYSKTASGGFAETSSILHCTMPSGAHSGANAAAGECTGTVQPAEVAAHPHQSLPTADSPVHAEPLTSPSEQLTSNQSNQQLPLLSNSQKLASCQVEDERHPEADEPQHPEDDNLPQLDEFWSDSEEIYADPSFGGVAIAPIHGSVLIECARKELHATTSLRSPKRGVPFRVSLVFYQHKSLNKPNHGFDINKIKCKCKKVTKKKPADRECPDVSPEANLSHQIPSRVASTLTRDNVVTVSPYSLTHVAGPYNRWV
Sequence of MBD-YFP (MBD of Mecp2) (Q9Z2D6 77-167): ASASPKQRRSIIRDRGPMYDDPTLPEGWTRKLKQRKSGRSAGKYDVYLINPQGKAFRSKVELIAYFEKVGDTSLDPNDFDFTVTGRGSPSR
Sequence of Mbd4-Strep (Q9Z2D7 whole entry): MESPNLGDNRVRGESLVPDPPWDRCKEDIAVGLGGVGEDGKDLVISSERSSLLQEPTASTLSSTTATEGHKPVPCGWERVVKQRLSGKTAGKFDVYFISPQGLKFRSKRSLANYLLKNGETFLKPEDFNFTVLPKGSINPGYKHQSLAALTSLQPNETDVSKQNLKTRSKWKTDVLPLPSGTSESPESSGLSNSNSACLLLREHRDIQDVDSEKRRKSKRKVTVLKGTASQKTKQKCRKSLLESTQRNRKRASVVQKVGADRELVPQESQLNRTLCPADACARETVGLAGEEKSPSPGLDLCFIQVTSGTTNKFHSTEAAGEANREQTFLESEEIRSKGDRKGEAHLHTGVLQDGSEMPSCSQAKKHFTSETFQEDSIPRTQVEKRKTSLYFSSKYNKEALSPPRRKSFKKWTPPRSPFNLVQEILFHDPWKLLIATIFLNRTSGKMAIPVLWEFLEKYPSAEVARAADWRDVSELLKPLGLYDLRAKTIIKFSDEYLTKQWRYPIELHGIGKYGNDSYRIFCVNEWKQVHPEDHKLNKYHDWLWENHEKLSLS

B1: mC:mC fully methylated CpG 42-mer (dsDNA)
DNA 1: CTCAACAACTAACTACCATCCGGACCAGAAGAGTCATCATGG
DNA 2: CCATGATGACTCTTCTGGTCCGGATGGTAGTTAGTTGTTGAG
modifications: 5mC at position 21 of both strands
binds: all assays above
